From US20190225680A1 (NASCIENT, published 2019)

T1: mouse TNC rCd4-His-FBG (rat; mouse, UniProt P05540 207-386)
T1 construct: domain: domains 3 and 4; also called Mu TNC; mouse TNC FBG
T1 sequence: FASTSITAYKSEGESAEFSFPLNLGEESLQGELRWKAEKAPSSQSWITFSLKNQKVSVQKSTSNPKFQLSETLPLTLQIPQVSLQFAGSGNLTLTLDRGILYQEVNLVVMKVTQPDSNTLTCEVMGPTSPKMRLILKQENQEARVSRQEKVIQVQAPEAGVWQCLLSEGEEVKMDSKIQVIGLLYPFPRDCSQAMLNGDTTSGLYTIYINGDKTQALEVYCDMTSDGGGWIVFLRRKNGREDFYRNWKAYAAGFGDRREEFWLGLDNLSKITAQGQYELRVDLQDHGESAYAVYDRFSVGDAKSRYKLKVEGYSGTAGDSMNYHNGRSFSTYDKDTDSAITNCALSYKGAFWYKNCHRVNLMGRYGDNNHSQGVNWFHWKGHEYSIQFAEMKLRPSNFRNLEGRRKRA

T2: dog TNC rCD4-His-FBG (rat; dog)
T2 sequence: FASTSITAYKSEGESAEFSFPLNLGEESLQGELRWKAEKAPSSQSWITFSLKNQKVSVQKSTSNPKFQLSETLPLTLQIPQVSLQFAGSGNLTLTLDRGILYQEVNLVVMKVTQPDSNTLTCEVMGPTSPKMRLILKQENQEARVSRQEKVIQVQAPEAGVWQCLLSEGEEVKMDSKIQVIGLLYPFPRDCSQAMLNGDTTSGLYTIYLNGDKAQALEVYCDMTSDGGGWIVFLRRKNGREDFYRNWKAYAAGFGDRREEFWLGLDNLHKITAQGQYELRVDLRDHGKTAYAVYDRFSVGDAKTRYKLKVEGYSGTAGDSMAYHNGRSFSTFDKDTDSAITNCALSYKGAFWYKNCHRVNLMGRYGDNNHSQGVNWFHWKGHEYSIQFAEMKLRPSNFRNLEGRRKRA

T3: rat TNC rCd4-His-FBG (rat) (UniProt P05540)
T3 sequence: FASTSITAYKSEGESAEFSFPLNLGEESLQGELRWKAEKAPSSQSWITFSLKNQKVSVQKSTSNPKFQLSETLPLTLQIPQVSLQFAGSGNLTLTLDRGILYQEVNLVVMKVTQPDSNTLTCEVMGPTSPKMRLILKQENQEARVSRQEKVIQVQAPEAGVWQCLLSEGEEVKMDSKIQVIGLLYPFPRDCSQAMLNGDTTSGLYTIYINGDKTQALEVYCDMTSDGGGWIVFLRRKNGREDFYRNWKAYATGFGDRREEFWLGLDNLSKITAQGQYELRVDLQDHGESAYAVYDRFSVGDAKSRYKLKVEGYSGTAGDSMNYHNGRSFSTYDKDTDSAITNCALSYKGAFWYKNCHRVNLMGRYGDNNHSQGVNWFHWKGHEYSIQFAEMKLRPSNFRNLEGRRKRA

T4: human TNR rCd4-His-FBG (rat; human)
T4 sequence: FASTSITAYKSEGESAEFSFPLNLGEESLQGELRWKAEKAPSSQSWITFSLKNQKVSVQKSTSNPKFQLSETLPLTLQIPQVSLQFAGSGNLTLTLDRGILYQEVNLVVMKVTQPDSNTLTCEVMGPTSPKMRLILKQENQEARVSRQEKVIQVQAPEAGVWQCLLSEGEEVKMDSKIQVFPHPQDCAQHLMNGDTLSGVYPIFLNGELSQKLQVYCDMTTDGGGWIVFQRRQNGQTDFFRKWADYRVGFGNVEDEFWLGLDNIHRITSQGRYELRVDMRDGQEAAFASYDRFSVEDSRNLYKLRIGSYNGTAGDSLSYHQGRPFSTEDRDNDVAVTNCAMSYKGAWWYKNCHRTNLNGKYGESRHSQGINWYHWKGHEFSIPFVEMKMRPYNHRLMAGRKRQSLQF

T5: human TNC rCd4-His-FBG (rat; human)
T5 sequence: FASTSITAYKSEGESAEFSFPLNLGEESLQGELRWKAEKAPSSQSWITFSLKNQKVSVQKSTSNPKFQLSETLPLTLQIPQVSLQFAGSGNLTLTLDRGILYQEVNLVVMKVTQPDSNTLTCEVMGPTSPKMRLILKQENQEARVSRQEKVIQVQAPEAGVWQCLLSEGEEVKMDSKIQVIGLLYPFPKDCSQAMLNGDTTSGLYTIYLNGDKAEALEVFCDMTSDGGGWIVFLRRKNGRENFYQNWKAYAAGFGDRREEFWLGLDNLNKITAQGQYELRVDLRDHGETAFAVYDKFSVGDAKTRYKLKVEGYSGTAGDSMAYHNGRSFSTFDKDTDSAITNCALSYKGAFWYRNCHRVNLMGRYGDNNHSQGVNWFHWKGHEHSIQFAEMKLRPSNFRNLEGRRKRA

T6: human TNR rCd4-His-FBG (rat; human, UniProt P05540 207-386)
T6 construct: domain: domains 3 and 4; also called Hu TNR; human TNR FBG
T6 sequence: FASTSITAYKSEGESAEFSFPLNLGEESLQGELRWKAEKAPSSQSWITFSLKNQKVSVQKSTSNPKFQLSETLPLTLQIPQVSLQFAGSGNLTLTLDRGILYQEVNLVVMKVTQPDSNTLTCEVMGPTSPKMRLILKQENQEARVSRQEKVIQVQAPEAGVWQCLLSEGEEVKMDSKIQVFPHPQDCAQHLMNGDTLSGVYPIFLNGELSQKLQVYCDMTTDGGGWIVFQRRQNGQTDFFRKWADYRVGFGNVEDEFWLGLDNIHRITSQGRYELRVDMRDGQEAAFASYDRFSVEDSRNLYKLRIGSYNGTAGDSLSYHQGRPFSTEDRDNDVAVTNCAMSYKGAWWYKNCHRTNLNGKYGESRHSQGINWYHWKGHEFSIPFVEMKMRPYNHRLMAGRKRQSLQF


Key:
mouse TNC rCd4-His-FBG [1] = target: T1, mouse TNC rCd4-His-FBG; assay: SPR off-rate screen, 25 C, IgG4 from supernatant captured on anti-human Fc, 15 nM antigen, 1:1 fit
[2] = target: T2, dog TNC rCD4-His-FBG (rat; dog); assay: SPR, BIAcore T100, 37 C, IgG4 captured on anti-human Fc, rCD4-His-FBG injected, 1:1 fit
[3] = target: T3, rat TNC rCd4-His-FBG (rat); assay: as above
[4] = target: T4, human TNR rCd4-His-FBG (rat; human); assay: as above
[5] = target: T5, human TNC rCd4-His-FBG (rat; human); assay: as above
mouse TNC rCd4-His-FBG [6] = target: T1, mouse TNC rCd4-His-FBG; assay: as above
[7] = target: T4, human TNR rCd4-His-FBG (rat; human); assay: SPR, 37 C, purified IgG4 captured on anti-human Fc
[8] = target: T4, human TNR rCd4-His-FBG (rat; human); assay: SPR off-rate screen, 25 C, IgG4 from supernatant captured on anti-human Fc, 100 nM antigen, 1:1 fit
human TNR rCd4-His-FBG = target: T6, human TNR rCd4-His-FBG; assay: SPR, BIAcore T100, 25 C, Fab captured, rCd4-FBG injected
Protocol: Experiments were performed using a BIAcore T100 instrument with CM5 sensor chip according to the protocol provided with the Human Fab Capture Kit (GE, 28-9583-25). Varying concentrations of rCd4-FBG were injected into a flow-cell with immobilised Fab and a reference flow-cell. After reference signal subtraction, the data was fitted to a global 1:1 fit using theT100 BIAevaluation software.

koff (mouse TNC rCd4-His-FBG [1]) [s⁻¹]	Kd [2] [nM]	koff [2] [s⁻¹]	kon [2] [M⁻¹ s⁻¹]	Kd [3] [nM]	koff [3] [s⁻¹]	kon [3] [M⁻¹ s⁻¹]	Kd [4] [nM]	koff [4] [s⁻¹]	kon [4] [M⁻¹ s⁻¹]	Kd [5] [nM]	koff [5] [s⁻¹]	kon [5] [M⁻¹ s⁻¹]	Kd (mouse TNC rCd4-His-FBG [6]) [nM]	koff (mouse TNC rCd4-His-FBG [6]) [s⁻¹]	kon (mouse TNC rCd4-His-FBG [6]) [M⁻¹ s⁻¹]	fold lower affinity for human TNR FBG than for human TNC FBG [7] [fold]	koff [8] [s⁻¹]	fold lower affinity for human TNR FBG than for human TNC FBG (human TNR rCd4-His-FBG) [fold]	Binder
3.3e-06	1.8	0.0108	5.97e+06	1.22	0.00473	3.89e+06	35.8	0.0431	1.2e+06	0.072	0.00083	1.16e+07	0.46	0.000445	972000	> 70	0.012	–	165_13_C3 IgG4 (antibody, V domains shown) VH: QVQLVESGGGLVQPGRSLRLSCAASGFTFDDYAMHWVRQAPGKGLEWVSGISGSGGSTYYADSVKGRFTISRDNAKNSLYLQMNSLRAEDTALYYCAKSYQSDEDAFDIWGQGTMVTVSS VL: DIQMTQSPASLPTPVGDRVTITCRASQYIQGFLNWYQQKPGKAPKLLIYDASNLETGVPSRFSGSGSGTDFTLTISSLQPEDFATYYCQQSYSTPQTFGQGTKVDIKR
–	–	–	–	–	–	–	–	–	–	–	–	–	–	–	–	–	–	> 60	B12 Fab (Fab, V domains shown, Monomeric Fab from a dual promoter Fab vector; also called B12 parental antibody) VH: QVQLVESGGGLVQPGRSLRLSCAASGFTFDDYAMHWVRQAPGKGLEWVSGISGSGGSTYYADSVKGRFTISRDNAKNSLYLQMNSLRAEDTALYYCAKDISAVPDTFDIWGQGTMVTVSS VL: DIQMTQSPASLPTPVGDRVTITCRASQYIQGFLNWYQQKPGKAPKLLIYDASNLETGVPSRFSGSGSGTDFTLTISSLQPEDFATYYCQQSYSTPQTFGQGTKVDIKR
